Key:
human FcRn [1] = target: T1, human FcRn (human); assay: BIAcore SPR, equilibrium binding with Scatchard analysis, soluble human FcRn over immobilized IgG1, pH 6.0
T1 construct: mature; Soluble heterodimer from baculovirus-infected High-Five cells, purified on IgG Sepharose; also called recombinant human FcRn; the human receptor
Method: (§1) The interaction of soluble murine and human FcRn with immobilized human IgG1 variants was monitored by surface plasmon resonance detection using a BIAcore 3000 instrument (Pharmacia Biosensor, Uppsala, Sweden). […] Protein concentrations were calculated by the bicinchoninic acid (BCA) method for both human and murine FcRn or using the 1% extinction coefficient at 280 m of 1.5 for IgG1 wild type and variants. The latter were coupled to the dextran matrix of a CM5 sensor chip (Pharmacia Biosensor) using an Amine Coupling Kit as described (Johnson et al., supra). The protein concentrations ranged from 3-5 μg/ml in 10 mM sodium acetate, pH 5.0. The activation period was set for 7 minutes at a flow rate of 10 μl/min and the immobilization period was set to between 10 and 20 minutes at a flow rate of 10 μl/min. Excess reactive esters were quenched by injection of 70 μl of 1.0 methanolamine hydrochloride, pH 8.5. […] Human and murine FcRn were buffer exchanged against 50 mM PBS buffer pH 6.0 containing 0.05% Tween 20. Dilutions were made in the same buffer. All binding experiments were performed at 25 C. with concentrations ranging from 120 to 1 μg/ml at a flow rate of 5 to 10 μl/min; data were collected for 25 to 50 minutes and three 1-minute pulses of PBS buffer pH 7.2 were used to regenerate the surfaces. FcRn was also flowed over an uncoated cell and the sensorgrams from these blank runs subtracted from those obtained with IgG1-coupled chips. Runs were analyzed using the software BIAevaluation 3.1 (Pharmacia). Association constants (KAS) were determined from Scatchard analysis by measuring the concentration of free reactants and complex at equilibrium after correction for nonspecific binding.

murine FcRn [2] = target: T2, murine FcRn (murine, UniProt P01887 21-119, limits assumed); assay: BIAcore SPR, Scatchard analysis of FIG. 7A, murine FcRn 1 nM to 556 nM over 4000 RU of immobilized IgG1
T2 construct: the whole entry is named; also called mouse FcRn; muFcRn
T2 sequence: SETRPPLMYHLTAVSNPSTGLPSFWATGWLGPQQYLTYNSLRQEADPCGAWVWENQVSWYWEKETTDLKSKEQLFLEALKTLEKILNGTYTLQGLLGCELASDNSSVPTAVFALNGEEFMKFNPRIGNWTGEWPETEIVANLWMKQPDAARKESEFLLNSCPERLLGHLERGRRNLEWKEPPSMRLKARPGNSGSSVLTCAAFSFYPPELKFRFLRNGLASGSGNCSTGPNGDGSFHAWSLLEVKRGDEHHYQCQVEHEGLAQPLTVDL
T2 sequence (b2m): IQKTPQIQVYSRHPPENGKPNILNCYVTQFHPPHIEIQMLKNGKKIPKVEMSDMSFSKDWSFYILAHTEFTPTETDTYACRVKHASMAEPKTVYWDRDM
Method: Runs were analyzed using the software BIAevaluation 3.1 (Pharmacia). Association constants (KAS) were determined from Scatchard analysis by measuring the concentration of free reactants and complex at equilibrium after correction for nonspecific binding. […] The concentration of free analyte (human or murine FcRn) is equal to the bulk analyte concentration since analyte is constantly replenished during sample injection. The concentration of free ligand on the surface of the sensor chip can be derived from the concentration of the complex and from the total binding capacity of the surface as KA=Req/C(Rmax-Req) where C is the free analyte concentration, Req is the steady-state response, and Rmax is the total surface binding capacity. Rearranging, the equation reads: Req/C=KA Rmax-KA Req.
In all cases, equilibrium (or near-equilibrium) binding levels were reached within 50 minutes. To estimate the increase in RU resulting from the non specific effect of protein on the bulk refractive index, binding of FcRn to an uncoated cell was measured and the sensorgrams from these blank runs subtracted from those obtained with IgG1-coupled chips.

murine FcRn [3] = target: T2, murine FcRn; assay: BIAcore SPR, equilibrium binding with Scatchard analysis, soluble murine FcRn over immobilized IgG1, pH 6.0
Method: as §1

human FcRn [4] = target: T1, human FcRn; assay: BIAcore SPR, soluble human FcRn over immobilized IgG1, pH 6.0
Method: (§2) The interaction of soluble murine and human FcRn with immobilized human IgG1 variants was monitored by surface plasmon resonance detection using a BIAcore 3000 instrument (Pharmacia Biosensor, Uppsala, Sweden). […] Protein concentrations were calculated by the bicinchoninic acid (BCA) method for both human and murine FcRn or using the 1% extinction coefficient at 280 m of 1.5 for IgG1 wild type and variants. The latter were coupled to the dextran matrix of a CM5 sensor chip (Pharmacia Biosensor) using an Amine Coupling Kit as described (Johnson et al., supra). The protein concentrations ranged from 3-5 μg/ml in 10 mM sodium acetate, pH 5.0. The activation period was set for 7 minutes at a flow rate of 10 μl/min and the immobilization period was set to between 10 and 20 minutes at a flow rate of 10 μl/min. Excess reactive esters were quenched by injection of 70 μl of 1.0 methanolamine hydrochloride, pH 8.5. […] Human and murine FcRn were buffer exchanged against 50 mM PBS buffer pH 6.0 containing 0.05% Tween 20. Dilutions were made in the same buffer. […] Runs were analyzed using the software BIAevaluation 3.1 (Pharmacia). Association constants (KAS) were determined from Scatchard analysis by measuring the concentration of free reactants and complex at equilibrium after correction for nonspecific binding.

murine FcRn [5] = target: T2, murine FcRn; assay: BIAcore SPR, soluble murine FcRn over immobilized IgG1, pH 6.0
Method: as §2

T1 sequence (chain, as listed by the source limits assumed, chain 1 of 2): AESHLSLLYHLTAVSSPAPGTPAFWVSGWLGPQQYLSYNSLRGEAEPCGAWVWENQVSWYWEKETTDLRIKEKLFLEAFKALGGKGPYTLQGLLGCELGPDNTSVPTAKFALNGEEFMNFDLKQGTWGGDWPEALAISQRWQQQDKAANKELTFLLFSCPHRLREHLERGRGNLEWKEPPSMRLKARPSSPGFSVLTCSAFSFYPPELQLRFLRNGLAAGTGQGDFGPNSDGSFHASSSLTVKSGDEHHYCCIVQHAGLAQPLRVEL
T1 sequence (P61769 21-119 limits assumed, chain 2 of 2): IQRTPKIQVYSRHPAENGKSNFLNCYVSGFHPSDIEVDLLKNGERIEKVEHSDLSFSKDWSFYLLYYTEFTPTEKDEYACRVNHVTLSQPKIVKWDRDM

Binder	ΔΔG (ΔG wild type - ΔG mutant) (human FcRn [1]) [kcal/mol]	Kd (murine FcRn [2]) [nM]	Kd (murine FcRn [3]) [nM]	ΔΔG (ΔG wild type - ΔG mutant) (murine FcRn [3]) [kcal/mol]	binding result (human FcRn [4])	binding result (murine FcRn [5])
human IgG1 MEDI-493 (SYNAGIS) G385R/Q386T/P387R/N389P (antibody, HEK 293, protein A purified; not shown: human IgG1 heavy chain CH1 domain (between VH and hinge-Fc); human kappa light chain constant domain) heavy (part 1 of 2): QVTLRESGPALVKPTQTLTLTCTFSGFSLSTSGMSVGWIRQPPGKALEWLADIWWDDKKDYNPSLKSRLTISKDTSKNQVVLKVTNMDPADTATYYCARSMITNWYFDVWGAGTTVTVSS heavy (part 2 of 2): EPKSCDKTHTCPPCPAPELLGGPSVFLFPPKPKDTLMISRTPEVTCVVVDVSHEDPEVKFNWYVDGVEVHNAKTKPREEQYNSTYRVVSVLTVLHQDWLNGKEYKCKVSNKALPAPIEKTISKAKGQPREPQVYTLPPSREEMTKNQVSLTCLVKGFYPSDIAVEWESNRTREPNYKTTPPVLDSDGSFFLYSKLTVDKSRWQQGNVFSCSVMHEALHNHYTQKSLSLSPGK light: DIQMTQSPSTLSASVGDRVTITCKCQLSVGYMHWYQQKPGKAPKLLIYDTSKLASGVPSRFSGSGSGTEFTLTISSLQPDDFATYYCFQGSGYPFTFGGGTKLEIK	0.3					
human IgG1 MEDI-493 (SYNAGIS) M252Y/S254T/T256E (antibody, HEK 293, protein A purified; also called IgG1/M252Y/S254T/T256E; not shown: human IgG1 heavy chain CH1 domain (between VH and hinge-Fc); human kappa light chain constant domain) heavy (part 1 of 2): QVTLRESGPALVKPTQTLTLTCTFSGFSLSTSGMSVGWIRQPPGKALEWLADIWWDDKKDYNPSLKSRLTISKDTSKNQVVLKVTNMDPADTATYYCARSMITNWYFDVWGAGTTVTVSS heavy (part 2 of 2): EPKSCDKTHTCPPCPAPELLGGPSVFLFPPKPKDTLYITREPEVTCVVVDVSHEDPEVKFNWYVDGVEVHNAKTKPREEQYNSTYRVVSVLTVLHQDWLNGKEYKCKVSNKALPAPIEKTISKAKGQPREPQVYTLPPSREEMTKNQVSLTCLVKGFYPSDIAVEWESNGQPENNYKTTPPVLDSDGSFFLYSKLTVDKSRWQQGNVFSCSVMHEALHNHYTQKSLSLSPGK light: DIQMTQSPSTLSASVGDRVTITCKCQLSVGYMHWYQQKPGKAPKLLIYDTSKLASGVPSRFSGSGSGTEFTLTISSLQPDDFATYYCFQGSGYPFTFGGGTKLEIK	1.4	24	27	1.4		
human IgG1 MEDI-493 (SYNAGIS) N434F/Y436H (antibody, HEK 293, protein A purified; not shown: human IgG1 heavy chain CH1 domain (between VH and hinge-Fc); human kappa light chain constant domain) heavy (part 1 of 2): QVTLRESGPALVKPTQTLTLTCTFSGFSLSTSGMSVGWIRQPPGKALEWLADIWWDDKKDYNPSLKSRLTISKDTSKNQVVLKVTNMDPADTATYYCARSMITNWYFDVWGAGTTVTVSS heavy (part 2 of 2): not shown light: DIQMTQSPSTLSASVGDRVTITCKCQLSVGYMHWYQQKPGKAPKLLIYDTSKLASGVPSRFSGSGSGTEFTLTISSLQPDDFATYYCFQGSGYPFTFGGGTKLEIK	1		9	2		
human IgG1 MEDI-493 (SYNAGIS) M252W (antibody, HEK 293, protein A purified; not shown: human IgG1 heavy chain CH1 domain (between VH and hinge-Fc); human kappa light chain constant domain) heavy (part 1 of 2): QVTLRESGPALVKPTQTLTLTCTFSGFSLSTSGMSVGWIRQPPGKALEWLADIWWDDKKDYNPSLKSRLTISKDTSKNQVVLKVTNMDPADTATYYCARSMITNWYFDVWGAGTTVTVSS heavy (part 2 of 2): not shown light: DIQMTQSPSTLSASVGDRVTITCKCQLSVGYMHWYQQKPGKAPKLLIYDTSKLASGVPSRFSGSGSGTEFTLTISSLQPDDFATYYCFQGSGYPFTFGGGTKLEIK	1.1		30	1.3		
human IgG1 MEDI-493 (SYNAGIS) I253A (antibody, HEK 293, protein A purified; also called 1253A; not shown: human IgG1 heavy chain CH1 domain (between VH and hinge-Fc); human kappa light chain constant domain) heavy (part 1 of 2): QVTLRESGPALVKPTQTLTLTCTFSGFSLSTSGMSVGWIRQPPGKALEWLADIWWDDKKDYNPSLKSRLTISKDTSKNQVVLKVTNMDPADTATYYCARSMITNWYFDVWGAGTTVTVSS heavy (part 2 of 2): not shown light: DIQMTQSPSTLSASVGDRVTITCKCQLSVGYMHWYQQKPGKAPKLLIYDTSKLASGVPSRFSGSGSGTEFTLTISSLQPDDFATYYCFQGSGYPFTFGGGTKLEIK					no binding (tested: FcRn 1 to 120 µg/ml)	no binding (tested: FcRn 1 to 120 µg/ml)
human IgG1 MEDI-493 (SYNAGIS) M252Y/T256Q (antibody, HEK 293, protein A purified; not shown: human IgG1 heavy chain CH1 domain (between VH and hinge-Fc); human kappa light chain constant domain) heavy (part 1 of 2): QVTLRESGPALVKPTQTLTLTCTFSGFSLSTSGMSVGWIRQPPGKALEWLADIWWDDKKDYNPSLKSRLTISKDTSKNQVVLKVTNMDPADTATYYCARSMITNWYFDVWGAGTTVTVSS heavy (part 2 of 2): not shown light: DIQMTQSPSTLSASVGDRVTITCKCQLSVGYMHWYQQKPGKAPKLLIYDTSKLASGVPSRFSGSGSGTEFTLTISSLQPDDFATYYCFQGSGYPFTFGGGTKLEIK	0.9					
human IgG1 MEDI-493 (SYNAGIS) H433K/N434F/Y436H (antibody, HEK 293, protein A purified; not shown: human IgG1 heavy chain CH1 domain (between VH and hinge-Fc); human kappa light chain constant domain) heavy (part 1 of 2): QVTLRESGPALVKPTQTLTLTCTFSGFSLSTSGMSVGWIRQPPGKALEWLADIWWDDKKDYNPSLKSRLTISKDTSKNQVVLKVTNMDPADTATYYCARSMITNWYFDVWGAGTTVTVSS heavy (part 2 of 2): EPKSCDKTHTCPPCPAPELLGGPSVFLFPPKPKDTLMISRTPEVTCVVVDVSHEDPEVKFNWYVDGVEVHNAKTKPREEQYNSTYRVVSVLTVLHQDWLNGKEYKCKVSNKALPAPIEKTISKAKGQPREPQVYTLPPSREEMTKNQVSLTCLVKGFYPSDIAVEWESNGQPENNYKTTPPVLDSDGSFFLYSKLTVDKSRWQQGNVFSCSVMHEALKFHHTQKSLSLSPGK light: DIQMTQSPSTLSASVGDRVTITCKCQLSVGYMHWYQQKPGKAPKLLIYDTSKLASGVPSRFSGSGSGTEFTLTISSLQPDDFATYYCFQGSGYPFTFGGGTKLEIK	1.1		14	1.8		
